Data reported in publication PMC7910558, “The HIF-1α antisense long non-coding RNA drives a positive feedback loop of HIF-1α mediated transactivation and glycolysis”.

Experiments:
PHD3 (EMSA) = PHD3 (EMSA) (UniProt Q9H6Z9 1-239); test: EMSA; Pull-down: RNA folded in 10 mM Tris pH 7, 0.1 M KCl, 10 mM MgCl2, then 5 µg RNA with 5 mg lysate in Pierce IP lysis buffer, 1 h, room temperature; EMSA: LightShift chemiluminescent RNA EMSA kit, buffer not given; settings: protein: recombinant, label: biotin-16-UTP
PKM2 (EMSA) = PKM2 (EMSA) (UniProt P14618 1-531); test: as above; settings: protein: recombinant; label: biotin-16-UTP; two predicted hairpins (nt 4-19, nt 30-57)
Chain of PKM2 (EMSA) (P14618 whole entry): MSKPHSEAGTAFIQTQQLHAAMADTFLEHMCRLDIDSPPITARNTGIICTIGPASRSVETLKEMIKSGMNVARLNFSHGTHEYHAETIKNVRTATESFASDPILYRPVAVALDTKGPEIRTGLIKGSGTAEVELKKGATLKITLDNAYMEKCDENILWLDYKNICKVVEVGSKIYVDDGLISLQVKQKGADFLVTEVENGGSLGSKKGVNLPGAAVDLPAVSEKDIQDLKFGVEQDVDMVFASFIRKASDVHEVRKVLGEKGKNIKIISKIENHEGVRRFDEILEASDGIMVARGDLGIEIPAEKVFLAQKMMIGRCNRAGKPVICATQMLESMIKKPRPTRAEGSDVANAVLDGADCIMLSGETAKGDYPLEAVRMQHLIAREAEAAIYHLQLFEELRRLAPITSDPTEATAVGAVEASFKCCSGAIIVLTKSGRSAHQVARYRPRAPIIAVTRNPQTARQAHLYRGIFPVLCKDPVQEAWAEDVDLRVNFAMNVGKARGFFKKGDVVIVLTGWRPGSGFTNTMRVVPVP

Chain of PHD3 (EMSA) (Q9H6Z9 whole entry): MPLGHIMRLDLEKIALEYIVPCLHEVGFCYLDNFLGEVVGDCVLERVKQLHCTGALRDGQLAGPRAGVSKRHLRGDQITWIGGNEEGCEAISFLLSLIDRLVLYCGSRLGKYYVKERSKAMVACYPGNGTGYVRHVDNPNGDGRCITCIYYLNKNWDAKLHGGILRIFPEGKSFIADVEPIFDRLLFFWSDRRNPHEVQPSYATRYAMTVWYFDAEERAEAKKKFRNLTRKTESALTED

B1: HIFAL nt 501-560 (structured_RNA)
RNA: UGCAUGGUGCUUACUAAUAACACAGUGGUAUUCUAAACAUUUUUCACCUAUUAUUUAAUC
- binding result (PHD3 (EMSA); predicted hairpin (nt 506-532)): binds

B2: HIFAL nt 1-60 (structured_RNA)
RNA: UCAUGUAGCGCCAGCCACACCAGGAACAGAAGGGUGCCGGGUACCUUCCGCAUGCUUGGU
- binding result (PKM2 (EMSA)): binds

B3: HIFAL 501-560 ΔhC (mC) (ssRNA)
RNA: UGCAUGUCUAAACAUUUUUCACCUAUUAUUUAAUC
- binding result (PHD3 (EMSA)): no binding
